Source: patent US20080113905A1 (Eli Lilly, published 2008)
Groups on a side chain read outwards from the residue. No end group written: not given here. *: point of attachment. DSPE = distearoyl phosphatidyl ethanolamine, CCCCCCCCCCCCCCCCCC(=O)OC[C@H](COP(=O)(O)OCCN*)OC(=O)CCCCCCCCCCCCCCCCC; maleimide = Maleimide, used for thiol-reactive attachment of PEG to a Cys (thioether bond)

Biological target: human GLP-1 receptor (human, UniProt P43220 24-463)
Assay: cell-based or functional assay

in vitro potency (EC50) in the CRE-BLAM reporter assay on HEK-293 cells expressing the human GLP-1 receptor, relative to V8GLP-1 equal to 100% [%] | Binder
3 | HVEGTFTSDVSSYLEGQAAKEFIAWLVKGRGC([maleimide-PEG 40 kDa branched]) [V8C38-40 kDa PEG]
0.7 | HVEGTFTSDC([maleimide-PEG 40 kDa branched])SSYLEEQAAKEFIAWLVKGRG [V8E22C16-40 kDa PEG]

Second part, the binder before the results:

Binder | in vitro potency (EC50) in the CRE-BLAM reporter assay on HEK-293 cells expressing the human GLP-1 receptor, relative to V8GLP-1 equal to 100% [%]
HVEGTFTSDC([maleimide-PEG 3.4 kDa-DSPE])SSYLEGQAAKEFIAWLVKGRG [V8C16-3.4 kDa DPSE-PEG] | 4
HVEGTFTSDVSSYLEGQAAKEFIAWLVKGRGC([maleimide-PEG 3.4 kDa-DSPE]) [V8C38-3.4 kDa DPSE-PEG] | 18
